The text below walks through data of patent US20220162331A1 (CHENGDU CONMED BIOSCIENCES, published 2022).

Substitutions are numbered along the chain they refer to.

The target in assay [1] is T1, recombinant human CD73 extracellular domain (Trp27-Lys546) with C-terminal 6-histidine tag (human, UniProt P21589 27-547).
T1 construct: also called hCD73; hCD73-cHis
T1 sequence: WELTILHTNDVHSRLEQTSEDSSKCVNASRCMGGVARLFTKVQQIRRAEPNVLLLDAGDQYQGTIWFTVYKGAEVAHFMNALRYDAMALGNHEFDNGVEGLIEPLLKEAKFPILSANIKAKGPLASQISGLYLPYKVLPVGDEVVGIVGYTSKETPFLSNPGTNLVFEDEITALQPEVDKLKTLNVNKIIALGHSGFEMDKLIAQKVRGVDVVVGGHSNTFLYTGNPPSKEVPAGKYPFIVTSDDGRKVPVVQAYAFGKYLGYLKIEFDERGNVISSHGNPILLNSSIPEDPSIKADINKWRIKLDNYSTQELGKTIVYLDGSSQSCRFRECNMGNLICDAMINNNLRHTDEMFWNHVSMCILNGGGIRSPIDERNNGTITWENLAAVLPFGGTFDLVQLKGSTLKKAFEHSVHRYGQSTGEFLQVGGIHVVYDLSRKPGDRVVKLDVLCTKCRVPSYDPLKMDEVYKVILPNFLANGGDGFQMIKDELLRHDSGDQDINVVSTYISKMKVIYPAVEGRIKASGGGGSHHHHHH
In words: SPR, Biacore T200, antibody captured on Protein A chip, hCD73 ECD as analyte, 1:1 Langmuir. As for the experimental part: The affinity of CD73 antibody was determined by plasma surface resonance on Biacore T200. At room temperature, the antibody concentration was diluted to 0.5 μg/mL with 1×HBS-EP buffer (prepared from HBS-EP+Buffer 10×, GE, BR1008-26), the Protein A chip (GE, 29-1275-56) was coated with a flow rate of 10 μL per minute, the capture time was about 40 seconds, and the coated RU value was controlled to be about 100 RU. The recombinant human CD73 extracellular domain protein was diluted to 3 μg/mL with 1×HBS-EP buffer, diluted to two-fold gradient, a total of 6 concentrations, 200 μL of each concentration gradient. The 1×HBS-EP buffer was used as a control, the flow rate was 30 μl/min, the binding time was 120 seconds, and the dissociation time was 600 seconds. The affinity was fitted using Langmuir 1:1 Kinetic theoretical model and analyzed by Biacore T200 Evaluation Software (Table 3).

In assay [2] the target is T2, human CD73 on Calu6 cells (human, UniProt P21589 27-549).
T2 construct: whole, on cells; Endogenous CD73 of the Calu6 cell line; also called CD73 on cell membrane surface
T2 sequence (looked up): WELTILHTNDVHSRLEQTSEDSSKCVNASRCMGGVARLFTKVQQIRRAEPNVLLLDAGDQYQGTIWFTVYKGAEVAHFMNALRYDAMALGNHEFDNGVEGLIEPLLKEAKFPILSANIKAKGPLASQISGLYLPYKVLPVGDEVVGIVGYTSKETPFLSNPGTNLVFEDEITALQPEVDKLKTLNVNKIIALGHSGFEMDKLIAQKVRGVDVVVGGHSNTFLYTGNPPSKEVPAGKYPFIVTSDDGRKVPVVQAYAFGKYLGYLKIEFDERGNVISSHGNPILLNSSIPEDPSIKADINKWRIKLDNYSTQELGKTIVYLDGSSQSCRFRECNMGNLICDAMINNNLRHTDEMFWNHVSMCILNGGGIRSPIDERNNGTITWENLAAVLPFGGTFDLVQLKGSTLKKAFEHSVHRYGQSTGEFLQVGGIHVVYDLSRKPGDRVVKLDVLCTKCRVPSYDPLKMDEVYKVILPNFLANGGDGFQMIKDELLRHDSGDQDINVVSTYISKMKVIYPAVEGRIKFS
In words: FACS on Calu6 cells.

Assay [3] concerns the target T2, human CD73 on Calu6 cells. In words: cell-based or functional assay.
The target in assay [4] is T2, human CD73 on Calu6 cells. The experiment in a line: cell-based or functional assay. The source holds these as a separate data set.
The target in assay [5] is T3, human full-length CD73 on hCD73-CHO-1C11 cells (human, UniProt P21589 27-549).
T3 construct: it may be a nucleotide entry; also called CHO-CD73-1C11
T3 sequence: T2 sequence (looked up)
In words: FACS on CHO-CD73-1C11 cells.

The target of assay [6] is T1, recombinant human CD73 extracellular …. The experiment in a line: ELISA, plate coated with recombinant CD73 extracellular domain. Background: ELISA stands for enzyme-linked immunosorbent assay.
In assay [7] the target is T4, recombinant cynomolgus monkey CD73 extracellular domain (Trp27-Lys546) (cynomolgus monkey, UniProt P21589 27-547 (human entry)).
T4 construct: also called cynoCD73; recombinant monkey CD73 extracellular domain
T4 chain: T1 sequence with M199T, T350A, V466I
Described as above.

B1: humanized anti-CD73 antibody 22C12 VH-v10/VL-v2 (antibody, V domains shown)
VH: QVQLVQSGAEVKKPGASVKVSCKASGYTFTGYWIQWVRQAPGQGLEWMGAIYPGDEDTRYTQKFQGRVTMTADTSISTAYMELSRLRSDDTAVYYCARGNWDDWDFDVWGQGTTVTVSS
VL: DIQMTQSPSSLSASVGDRVTITCRASQDISNYLNWYQQKPGKAPKLLIHYTSRLHSGVPSRFSGSGSGTDYTLTISSLQPEDFATYYCQQGDTLPWTFGQGTKVEIK
notes: Human IgG1 CH1-CH3 constant region and kappa constant region; also called hu22C12 VHv10 (printed hu22C12 Vilv10) + hu22C12 Vkv2
Consider B1, for which, in assay [1], the equilibrium dissociation constant (Kd) stood at 0.134 nM, the koff amounted to 0.000225 s⁻¹ and the kon was found to be 1.68e+06 M⁻¹ s⁻¹.

B2: humanized anti-CD73 antibody 22C12 VH-v9/Vk-v2 (antibody, V domains shown)
VH: B1 VH with E56S
VL: B1 VL
notes: Human IgG1 CH1-CH3 constant region and kappa constant region; also called hu22C12 VHv9 (printed hu22C12V11v9) + hu22C12 Vkv2
B2: in assay [1], the Kd turned out to be 0.135 nM, the off-rate constant (koff) worked out at 0.000165 s⁻¹ and the kon was found to be 1.22e+06 M⁻¹ s⁻¹.

B3: humanized anti-CD73 antibody 22C12 VH-v10/VL-v3 (antibody, V domains shown)
VH: B1 VH
VL: B1 VL with Y71F
notes: Human IgG1 CH1-CH3 constant region and kappa constant region; also called hu22C12 VHv10 (printed hu22C12 Vilv10) + hu22C12 Vkv3
For the molecule B3, in assay [1], the dissociation constant (Kd) is 0.0956 nM, the off-rate (koff) was 0.000179 s⁻¹ and the on-rate constant (kon) amounted to 1.87e+06 M⁻¹ s⁻¹.

B4: CD73 antibody 2D4 (antibody, V domains shown)
VH: EVKLVESGGGLVQPGGSLKLSCATSGFTFSDYYMYWVRQTPEKRLEWVAYISNVGGSTYYPDTVKGRFTISRDNAKNTLYLQMSRLKSEDTAIYYCARGDGYYGYYFDVWGAGTTVTVSS
VL: QIVLTQSPAIMSASPGEKVTMTCSASSSVSYMHWYQQKSGTSPKRWIYDTSKLASGVPARFSGSGSGTSYSLTISSMEAEDAATYYCQQWSSNPYTFGGGTKLEIK
notes: also called Clone 2D4
B4 returned a half-maximal effective concentration (EC50) in assay [2] of 1.25 nM. Moreover, the “Inhibition of CD73 enzyme activity IC50(nM), Calu6” value (“Inhibition” for short) in assay [3] is 0.47 nM. Besides, in assay [4], the “CD73 endocytosis ratio %, 30 minutes” value came out at 19.1%; the “CD73 endocytosis ratio %, 60 minutes” value turned out to be 28.1%; the “CD73 endocytosis ratio %, 120 minutes” value was determined as 29.7%; the “CD73 endocytosis ratio %, 240 minutes” value stood at 39.5%. In assay [4], the “CD73 endocytosis ratio %, 480 minutes” value was determined as 36.9%. For the same molecule, the half-maximal effective concentration (EC50) in assay [5] turned out to be 1.76 nM. Also, the EC50 in assay [6] is 0.02 nM. Besides, the concentration for a half-maximal effect (EC50) in assay [7] turned out to be 0.02 nM.

B5: CD73 antibody 2H2 (antibody, V domains shown)
VH: B4 VH with I93M
VL: B4 VL with Q1E, I2N, A59T, Y70F
notes: also called Clone 2H2
For B5, in assay [2], it took 0.93 nM to reach a half-maximal effect (EC50). For the same molecule, the “Inhibition” value in assay [3] is 4.03 nM. Further, in assay [4], the “CD73 endocytosis ratio %, 30 minutes” value was found to be 22.4%; the “CD73 endocytosis ratio %, 60 minutes” value was 27.4%; the “CD73 endocytosis ratio %, 120 minutes” value worked out at 45.8%; the “CD73 endocytosis ratio %, 240 minutes” value turned out to be 33.4%. Moreover, the “CD73 endocytosis ratio %, 480 minutes” value in assay [4] was found to be 49.3%. Besides, the 50% effective concentration (EC50) in assay [5] is 1.53 nM. In addition, in assay [6], the concentration for a half-maximal effect (EC50) was found to be 0.02 nM. For the same molecule, in assay [7], the 50% effective concentration (EC50) is 0.02 nM.

B6: CD73 antibody 14E4 (antibody, V domains shown)
VH: QVQLQQSGPELVKPGASVKISCKASGYIFTNYYIHWVKQRPGQGLEWIGWIFPGSGNTKYSEKFKDKATLTADTSSSTAYMQLSSLTSEDSAVYFCAGLSDWGQGTTLTVSS
VL: DIQMTQSPSSLSASLGERVSLTCRASQDIGDRLIWLQQEPAGTFKRLIYATSSLDSGVPKRFSGSRSGSDYSLTISSLESEDFVDYYCLQYASSPWTFGGGTKLEIK
notes: Mouse variable regions on human IgG heavy chain constant region and human kappa constant region (chimeric IgG); also called Clone 14E4
As to B6, the EC50 in assay [2] amounted to 2.56 nM. For the same molecule, the “Inhibition” value in assay [3] worked out at 4.57 nM. In assay [4], the “CD73 endocytosis ratio %, 60 minutes” value turned out to be 19.3%; the “CD73 endocytosis ratio %, 120 minutes” value came to 2.6%; the “CD73 endocytosis ratio %, 240 minutes” value worked out at 12.7%; the “CD73 endocytosis ratio %, 480 minutes” value amounted to 2.6%. In assay [5], this molecule gave an EC50 of 6.55 nM. Moreover, in assay [6], the EC50 worked out at 0.06 nM. In addition, in assay [7], the EC50 was 0.18 nM.

B7: CD73 antibody 7E10 (antibody, V domains shown)
VH: QVQFQQSGAELVRPGASVKLSCKASGYIFSSYWIQWVKQRPGQGLEWIGAIYPGDGDTRYTQKFKDKATLTADKSSSTAYMQLSSLASEDSAVYYCAGFASWGQGTLVTVSA
VL: B6 VL with D31S, R32S, I34N, A41N, F44I, V84A, W96Y
notes: Mouse variable regions on human IgG heavy chain constant region and human kappa constant region (chimeric IgG); also called Clone 7E10
Turning to B7, the concentration giving a half-maximal response (EC50) in assay [2] came out at 2.52 nM; in assay [5], 8.59 nM; in assay [6], 0.07 nM; in assay [7], 0.11 nM. Moreover, the “Inhibition” value in assay [3] is 7.66 nM. In addition, in assay [4], the “CD73 endocytosis ratio %, 30 minutes” value worked out at 9.9%. In addition, the “CD73 endocytosis ratio %, 60 minutes” value in assay [4] was found to be 25.1%. The “CD73 endocytosis ratio %, 240 minutes” value in assay [4] was determined as 6.6%. Moreover, in assay [4], the “CD73 endocytosis ratio %, 480 minutes” value was found to be 6.2%.

B8: CD73 antibody 6A8 (antibody, V domains shown)
VH: B7 VH with V12A, A16T, S30T, V37I, D66G, D73E, S84R, V108L
VL: B6 VL with S20N, R32S, A41D, F44I, F83L, W96F
notes: Mouse variable regions on human IgG heavy chain constant region and human kappa constant region (chimeric IgG); also called Clone 6A8
On to B8, for which the concentration for a half-maximal effect (EC50) in assay [2] came to 3.51 nM; in assay [5], 11 nM; in assay [6], 0.08 nM; in assay [7], 0.09 nM. Also, in assay [3], the “Inhibition” value was 6.63 nM. Also, the “CD73 endocytosis ratio %, 60 minutes” value in assay [4] was found to be 16.2%.

B9: CD73 antibody 8A8 (antibody, V domains shown)
VH: B7 VH with V12A, S30T, V37I, D66G, S84R, V108L
VL: B6 VL with D31E, R32S, A41D, F44I, T74S, E81D, A92S, W96Y
notes: Mouse variable regions on human IgG heavy chain constant region and human kappa constant region (chimeric IgG); also called Clone 8A8
For the molecule B9, the EC50 in assay [2] was 0.61 nM. Moreover, the “Inhibition” value in assay [3] came to 4.89 nM. Besides, in assay [4], the “CD73 endocytosis ratio %, 30 minutes” value was 21.2%; the “CD73 endocytosis ratio %, 60 minutes” value was determined as 25.6%; the “CD73 endocytosis ratio %, 120 minutes” value came out at 27.3%; the “CD73 endocytosis ratio %, 240 minutes” value turned out to be 44.2%. In addition, the “CD73 endocytosis ratio %, 480 minutes” value in assay [4] is 40.5%. The response in assay [5] was half-maximal at 1.47 nM (EC50). Further, the half-maximal effective concentration (EC50) in assay [6] amounted to 0.02 nM. In assay [7], the half-maximal effective concentration (EC50) is 0.02 nM.

B10: humanized anti-CD73 antibody 6G8 VH-v1/VK-v1 (antibody, V domains shown)
VH: QVTLRESGPALVKPTQTLTLTCTFSGFSLSTSGMGVGWIRQPPGKALEWLAHIWWDDDKYYNPSLKSRLTISKDTSKNQVVLTMTNMDPVDTATYYCARRERWAWFAYWGQGTLVTVSS
VL: DIQMTQSPSSLSASVGDRVTITCRASQNVFTNVAWYQQKPGKAPKVLIYSASYRYSGVPSRFSGSGSGTDFTLTISSLQPEDFATYFCQQYNSYPTFGQGTKLEIK
notes: Human IgG1 CH1-CH3 constant region and kappa constant region; also called hu6G8 VHv1 + hu6G8 Vkv1
With B10, in assay [1], the Kd turned out to be 0.272 nM, the koff stood at 0.000106 s⁻¹ and the kon is 389000 M⁻¹ s⁻¹.

Broadly, the Kd is the free concentration of one partner at which half of the binding sites on the other are occupied at equilibrium, for simple one-to-one binding. For orientation: koff means the first-order rate constant of dissociation. As usually defined, the kon is the second-order rate constant of association. The EC50 is the concentration at which the effect is half-maximal.
